PMC12809078 (2025)

Target: CtBP2_(31-364)-StrepI (human, UniProt P56545 31-364)
Assay: ITC

Kd: 7.2 µM
Binder: NKEGDTAWDLTPE [G9a peptide encompassing residues 881 to 893]
